Measurements reported in patent US20120324602A1.
Values belong to the substance of their own block, whether it stands above or below them.

Key:
[1] = biological target: BSH (Arabidopsis thaliana); test: TAP-MS, C-terminal GS tag
[2] = biological target: DNA-binding bromodomain-containing protein (AT1G20670) (Arabidopsis thaliana); test: TAP-MS, C-terminal GS tag
[3] = biological target: DNA-binding bromodomain-containing protein (AT1G58025) (Arabidopsis thaliana); test: TAP-MS, C-terminal GS tag
[4] = biological target: DNA-binding bromodomain-containing protein, similar to At1g20670 (AT5G55040) (Arabidopsis thaliana); test: TAP-MS, C-terminal GS tag
[5] = biological target: LFR (armadillo-repeat protein) (Arabidopsis thaliana); test: TAP-MS, C-terminal GS tag
[6] = biological target: RD21 (RESPONSIVE TO …ON 21) (Arabidopsis thaliana); test: TAP-MS, C-terminal GS tag
[7] = biological target: SNF2 protein (BRM) (Arabidopsis thaliana); test: TAP-MS, C-terminal GS tag
[8] = biological target: SWI3A (Arabidopsis thaliana); test: TAP-MS, C-terminal GS tag
[9] = biological target: SWI3B (Arabidopsis thaliana); test: TAP-MS, C-terminal GS tag
[10] = biological target: SWI3D (Arabidopsis thaliana); test: TAP-MS, C-terminal GS tag
[11] = biological target: T1, SWIRM domain-containing protein (SWI3C) (Arabidopsis thaliana); test: TAP-MS, C-terminal GS tag
T1 sequence (Q9XI07 1-807, looked up): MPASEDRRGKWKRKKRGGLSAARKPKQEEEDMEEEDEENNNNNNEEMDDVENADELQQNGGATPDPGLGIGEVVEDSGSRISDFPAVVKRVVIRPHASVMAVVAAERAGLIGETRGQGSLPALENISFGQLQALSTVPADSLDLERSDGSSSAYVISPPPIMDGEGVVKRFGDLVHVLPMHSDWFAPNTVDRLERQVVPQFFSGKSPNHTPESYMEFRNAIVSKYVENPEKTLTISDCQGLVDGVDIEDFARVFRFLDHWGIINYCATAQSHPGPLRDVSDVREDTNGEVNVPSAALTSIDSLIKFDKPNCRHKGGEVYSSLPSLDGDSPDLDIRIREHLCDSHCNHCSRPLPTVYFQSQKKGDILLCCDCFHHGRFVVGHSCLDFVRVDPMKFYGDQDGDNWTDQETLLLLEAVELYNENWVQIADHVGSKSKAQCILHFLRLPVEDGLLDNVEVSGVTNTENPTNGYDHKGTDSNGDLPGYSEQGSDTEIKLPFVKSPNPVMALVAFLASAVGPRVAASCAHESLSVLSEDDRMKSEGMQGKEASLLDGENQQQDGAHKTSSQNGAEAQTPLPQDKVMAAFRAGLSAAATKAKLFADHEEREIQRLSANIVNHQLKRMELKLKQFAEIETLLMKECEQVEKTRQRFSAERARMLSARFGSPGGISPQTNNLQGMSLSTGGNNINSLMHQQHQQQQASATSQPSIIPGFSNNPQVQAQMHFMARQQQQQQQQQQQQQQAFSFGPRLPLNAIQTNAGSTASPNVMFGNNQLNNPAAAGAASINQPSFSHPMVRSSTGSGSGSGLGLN

[12] = biological target: T2, actin-related protein 4 (ARP4) (Arabidopsis thaliana); test: TAP-MS, C-terminal GS tag
T2 sequence (Q84M92 1-441, looked up): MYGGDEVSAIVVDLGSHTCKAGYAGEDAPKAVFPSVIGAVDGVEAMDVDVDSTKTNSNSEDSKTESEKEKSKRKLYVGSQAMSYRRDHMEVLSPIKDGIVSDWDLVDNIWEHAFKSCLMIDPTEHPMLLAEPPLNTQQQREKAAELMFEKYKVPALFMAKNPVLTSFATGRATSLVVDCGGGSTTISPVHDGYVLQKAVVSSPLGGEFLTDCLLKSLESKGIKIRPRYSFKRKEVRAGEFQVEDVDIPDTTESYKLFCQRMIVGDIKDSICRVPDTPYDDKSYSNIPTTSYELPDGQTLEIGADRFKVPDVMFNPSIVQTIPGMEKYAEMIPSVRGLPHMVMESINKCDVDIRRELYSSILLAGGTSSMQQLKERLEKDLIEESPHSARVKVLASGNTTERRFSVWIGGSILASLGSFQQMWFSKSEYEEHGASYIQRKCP

[13] = biological target: T3, actin-related protein 7 (ARP7) (Arabidopsis thaliana); test: TAP-MS, C-terminal GS tag
T3 sequence (Q8L4Y5 1-363, looked up): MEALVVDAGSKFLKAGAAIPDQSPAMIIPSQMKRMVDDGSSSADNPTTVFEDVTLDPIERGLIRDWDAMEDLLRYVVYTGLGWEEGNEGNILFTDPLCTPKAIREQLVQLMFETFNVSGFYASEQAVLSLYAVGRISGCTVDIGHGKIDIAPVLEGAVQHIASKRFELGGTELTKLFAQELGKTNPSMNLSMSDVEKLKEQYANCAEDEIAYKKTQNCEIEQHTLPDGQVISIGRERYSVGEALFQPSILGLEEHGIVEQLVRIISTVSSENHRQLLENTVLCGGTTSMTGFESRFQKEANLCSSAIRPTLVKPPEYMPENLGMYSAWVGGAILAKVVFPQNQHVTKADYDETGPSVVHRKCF

[14] = biological target: electron carrier (AT1G32730) (Arabidopsis thaliana); test: TAP-MS, C-terminal GS tag
[15] = biological target: expressed protein, similar to At3g03460 (AT5G17510) (Arabidopsis thaliana); test: TAP-MS, C-terminal GS tag
[16] = biological target: expressed protein, similar to At4g22320 (AT5G55210) (Arabidopsis thaliana); test: TAP-MS, C-terminal GS tag
[17] = biological target: isocitrate dehydrogenase (AT5G03290) (Arabidopsis thaliana); test: TAP-MS, C-terminal GS tag
[18] = biological target: unknown protein (AT1G06500) (Arabidopsis thaliana); test: TAP-MS, C-terminal GS tag
[19] = biological target: BSH (Arabidopsis thaliana); test: TAP-MS, N-terminal GS tag
[20] = biological target: CHR12 (Arabidopsis thaliana); test: TAP-MS, N-terminal GS tag
[21] = biological target: CKA2 (casein kinase II alpha chain 2) (Arabidopsis thaliana); test: TAP-MS, N-terminal GS tag
[22] = biological target: CRU1 (CRUCIFERINA) (Arabidopsis thaliana); test: TAP-MS, N-terminal GS tag
[23] = biological target: CRU3 (CRUCIFERIN 3) (Arabidopsis thaliana); test: TAP-MS, N-terminal GS tag
[24] = biological target: DNA-binding bromodomain-containing protein (AT1G20670) (Arabidopsis thaliana); test: TAP-MS, N-terminal GS tag
[25] = biological target: DNA-binding bromodomain-containing protein, similar to At1g20670 (AT5G55040) (Arabidopsis thaliana); test: TAP-MS, N-terminal GS tag
[26] = biological target: LFR (armadillo-repeat protein) (Arabidopsis thaliana); test: TAP-MS, N-terminal GS tag
[27] = biological target: RD21 (RESPONSIVE TO …ON 21) (Arabidopsis thaliana); test: TAP-MS, N-terminal GS tag
[28] = biological target: SNF2 protein (BRM) (Arabidopsis thaliana); test: TAP-MS, N-terminal GS tag
[29] = biological target: SWI3A (Arabidopsis thaliana); test: TAP-MS, N-terminal GS tag
[30] = biological target: SWI3B (Arabidopsis thaliana); test: TAP-MS, N-terminal GS tag
[31] = biological target: SWI3D (Arabidopsis thaliana); test: TAP-MS, N-terminal GS tag
[32] = biological target: T1, SWIRM domain-containing protein (SWI3C) (Arabidopsis thaliana); test: TAP-MS, N-terminal GS tag
[33] = biological target: T2, actin-related protein 4 (ARP4) (Arabidopsis thaliana); test: TAP-MS, N-terminal GS tag
[34] = biological target: T3, actin-related protein 7 (ARP7) (Arabidopsis thaliana); test: TAP-MS, N-terminal GS tag
[35] = biological target: electron carrier (AT1G32730) (Arabidopsis thaliana); test: TAP-MS, N-terminal GS tag
[36] = biological target: expressed protein, similar to At3g03460 (AT5G17510) (Arabidopsis thaliana); test: TAP-MS, N-terminal GS tag
[37] = biological target: expressed protein, similar to At4g22320 (AT5G55210) (Arabidopsis thaliana); test: TAP-MS, N-terminal GS tag
[38] = biological target: transcription factor (AT3G18380) (Arabidopsis thaliana); test: TAP-MS, N-terminal GS tag
[39] = biological target: unknown protein (AT1G06500) (Arabidopsis thaliana); test: TAP-MS, N-terminal GS tag
[40] = biological target: unknown, similar to At5g55210 (AT4G22320) (Arabidopsis thaliana); test: TAP-MS, N-terminal GS tag

C-GS (times co-purified) [1]: 2
C-GS (times co-purified) [2]: 2
C-GS (times co-purified) [3]: 1
C-GS (times co-purified) [4]: 1
C-GS (times co-purified) [5]: 2
C-GS (times co-purified) [6]: 2
C-GS (times co-purified) [7]: 1
C-GS (times co-purified) [8]: 2
C-GS (times co-purified) [9]: 2
C-GS (times co-purified) [10]: 1
C-GS (times co-purified) [11]: 1
C-GS (times co-purified) [12]: 1
C-GS (times co-purified) [13]: 2
C-GS (times co-purified) [14]: 2
C-GS (times co-purified) [15]: 2
C-GS (times co-purified) [16]: 2
C-GS (times co-purified) [17]: 1
C-GS (times co-purified) [18]: 1
Substance: Swp73B-GS

N-GS (times co-purified) [19]: 2
N-GS (times co-purified) [20]: 1
N-GS (times co-purified) [21]: 1
N-GS (times co-purified) [22]: 1
N-GS (times co-purified) [23]: 1
N-GS (times co-purified) [24]: 3
N-GS (times co-purified) [25]: 1
N-GS (times co-purified) [26]: 2
N-GS (times co-purified) [27]: 2
N-GS (times co-purified) [28]: 2
N-GS (times co-purified) [29]: 3
N-GS (times co-purified) [30]: 2
N-GS (times co-purified) [31]: 3
N-GS (times co-purified) [32]: 3
N-GS (times co-purified) [33]: 2
N-GS (times co-purified) [34]: 2
N-GS (times co-purified) [35]: 2
N-GS (times co-purified) [36]: 2
N-GS (times co-purified) [37]: 2
N-GS (times co-purified) [38]: 2
N-GS (times co-purified) [39]: 2
N-GS (times co-purified) [40]: 1
Substance: GS-Swp73B
